In patent publication US20030165934:

Key:
[1] = system: full length Flag-ATRIP protein purified from insect cells following baculovirus infection
[2] = system: NH2-terminal fragment of ATRIP isolated from bacteria
Chain of NH2-terminal fragment of ATRIP isolated from bacteria (chain, as listed by the source): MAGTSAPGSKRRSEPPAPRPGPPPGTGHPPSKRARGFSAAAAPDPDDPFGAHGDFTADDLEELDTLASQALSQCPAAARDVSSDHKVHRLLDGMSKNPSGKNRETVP

Chain of Flag-ATR (ATR tagged with a Flag epitope, overexpressed in 293/293T cells) (chain, as listed by the source): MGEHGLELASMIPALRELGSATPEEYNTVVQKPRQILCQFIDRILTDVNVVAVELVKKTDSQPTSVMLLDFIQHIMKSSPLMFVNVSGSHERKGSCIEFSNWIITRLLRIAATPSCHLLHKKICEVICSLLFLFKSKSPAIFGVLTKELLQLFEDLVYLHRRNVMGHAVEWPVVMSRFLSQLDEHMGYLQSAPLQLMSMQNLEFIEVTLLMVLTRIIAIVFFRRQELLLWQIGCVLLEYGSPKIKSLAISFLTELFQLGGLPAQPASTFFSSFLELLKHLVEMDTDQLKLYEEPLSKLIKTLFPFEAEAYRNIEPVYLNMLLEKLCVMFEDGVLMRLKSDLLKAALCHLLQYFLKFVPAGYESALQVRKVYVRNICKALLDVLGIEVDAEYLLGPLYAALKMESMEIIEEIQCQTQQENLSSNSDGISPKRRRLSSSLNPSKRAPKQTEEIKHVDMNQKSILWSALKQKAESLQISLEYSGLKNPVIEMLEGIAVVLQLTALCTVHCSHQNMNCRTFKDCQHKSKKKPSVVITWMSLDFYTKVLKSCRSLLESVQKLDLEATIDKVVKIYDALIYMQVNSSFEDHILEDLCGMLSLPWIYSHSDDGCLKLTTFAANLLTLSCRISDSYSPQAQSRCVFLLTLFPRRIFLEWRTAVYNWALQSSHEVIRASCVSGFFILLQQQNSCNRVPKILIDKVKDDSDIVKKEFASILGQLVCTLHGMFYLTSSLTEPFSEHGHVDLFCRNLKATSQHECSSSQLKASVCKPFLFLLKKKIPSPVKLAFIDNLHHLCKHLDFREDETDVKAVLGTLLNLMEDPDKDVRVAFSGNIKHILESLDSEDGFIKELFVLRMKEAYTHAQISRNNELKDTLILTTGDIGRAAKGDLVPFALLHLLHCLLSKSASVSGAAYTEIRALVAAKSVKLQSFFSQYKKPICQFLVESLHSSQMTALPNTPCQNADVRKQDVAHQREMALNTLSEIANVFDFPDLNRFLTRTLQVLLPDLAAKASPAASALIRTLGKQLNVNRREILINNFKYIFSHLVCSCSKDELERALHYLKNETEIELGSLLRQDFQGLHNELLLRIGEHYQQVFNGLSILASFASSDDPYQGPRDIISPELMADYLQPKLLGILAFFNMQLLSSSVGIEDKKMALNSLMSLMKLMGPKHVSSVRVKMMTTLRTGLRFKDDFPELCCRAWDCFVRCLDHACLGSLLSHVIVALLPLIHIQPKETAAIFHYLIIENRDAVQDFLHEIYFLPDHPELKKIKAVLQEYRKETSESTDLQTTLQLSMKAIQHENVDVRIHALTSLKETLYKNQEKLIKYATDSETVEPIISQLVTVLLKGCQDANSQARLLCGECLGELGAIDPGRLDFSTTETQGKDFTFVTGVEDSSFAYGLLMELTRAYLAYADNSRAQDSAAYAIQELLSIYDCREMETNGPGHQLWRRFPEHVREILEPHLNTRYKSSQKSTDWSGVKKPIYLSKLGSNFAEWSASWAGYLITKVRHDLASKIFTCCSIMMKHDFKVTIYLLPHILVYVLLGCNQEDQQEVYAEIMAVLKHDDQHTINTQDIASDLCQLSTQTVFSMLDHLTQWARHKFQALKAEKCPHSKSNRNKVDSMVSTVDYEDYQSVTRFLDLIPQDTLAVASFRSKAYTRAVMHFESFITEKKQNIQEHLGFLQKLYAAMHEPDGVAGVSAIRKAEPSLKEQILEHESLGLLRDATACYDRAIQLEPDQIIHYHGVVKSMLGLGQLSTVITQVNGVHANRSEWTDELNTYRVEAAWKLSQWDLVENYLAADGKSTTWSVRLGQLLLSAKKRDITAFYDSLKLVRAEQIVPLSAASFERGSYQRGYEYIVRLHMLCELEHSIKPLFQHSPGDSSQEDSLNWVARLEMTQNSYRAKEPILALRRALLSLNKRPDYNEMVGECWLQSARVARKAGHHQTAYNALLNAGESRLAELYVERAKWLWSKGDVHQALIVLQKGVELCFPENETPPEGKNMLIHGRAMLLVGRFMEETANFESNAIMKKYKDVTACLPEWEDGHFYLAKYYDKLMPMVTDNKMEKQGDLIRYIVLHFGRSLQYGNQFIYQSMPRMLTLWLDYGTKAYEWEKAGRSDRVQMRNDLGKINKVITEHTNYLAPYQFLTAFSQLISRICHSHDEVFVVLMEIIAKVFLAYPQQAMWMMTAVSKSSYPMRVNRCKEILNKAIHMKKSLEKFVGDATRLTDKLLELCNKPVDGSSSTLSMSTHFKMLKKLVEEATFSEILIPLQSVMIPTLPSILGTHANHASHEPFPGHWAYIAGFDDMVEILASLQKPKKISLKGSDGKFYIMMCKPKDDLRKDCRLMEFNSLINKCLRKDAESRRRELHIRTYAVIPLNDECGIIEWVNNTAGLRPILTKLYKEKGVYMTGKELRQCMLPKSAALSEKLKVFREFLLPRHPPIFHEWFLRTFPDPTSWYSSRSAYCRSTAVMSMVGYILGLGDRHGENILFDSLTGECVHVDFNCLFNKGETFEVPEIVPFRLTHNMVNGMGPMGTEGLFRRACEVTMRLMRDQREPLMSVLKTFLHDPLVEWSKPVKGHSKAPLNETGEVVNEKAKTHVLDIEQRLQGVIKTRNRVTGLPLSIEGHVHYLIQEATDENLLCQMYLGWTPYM

Flag-ATR (ATR tagged with a Flag epitope, overexpressed in 293/293T cells)
phosphorylation in a kinase reaction [1]: recombinant full-length ATRIP isolated from baculovirus-infected insect cells and an NH2-terminal fragment of ATRIP isolated from bacteria could both be phosphorylated when placed in a kinase reaction with ATR isolated from human cells
^32P-labeling in kinase assay (Myc(3x)-tagged ATRIP): kinase assays with Flag-ATR immunoprecipitated from cells that also expressed Myc-ATRIP revealed ^32P-labeling of co-immunoprecipitated Myc-ATRIP
phosphorylation in a kinase reaction [2]: recombinant full-length ATRIP isolated from baculovirus-infected insect cells and an NH2-terminal fragment of ATRIP isolated from bacteria could both be phosphorylated when placed in a kinase reaction with ATR isolated from human cells
